What was measured:
[1] = system: GST-Jazz (three zinc finger artificial transcription factor) (synthetic construct); test: EMSA; conditions: 50 uM ZnCl2; 5-96 nM protein; at 12 nM shift weaker than GST-UtroUp (Fig. 2C); EMSA: 20 mM Hepes pH 7.5, 0.5 mM DTT, 100 mM NaCl, 50 uM ZnCl2, 50 ug/ml BSA, 100 ng poly(dI-dC), 0.05% NP40, 5% glycerol; temperature not stated
[2] = system: GST-UtroUp (six zinc finger artificial transcription factor) (synthetic construct); test: EMSA; conditions: 50 uM ZnCl2; 1-90 nM protein; mean of five experiments; EMSA: 20 mM Hepes pH 7.5, 0.5 mM DTT, 100 mM NaCl, 50 uM ZnCl2, 50 ug/ml BSA, 100 ng poly(dI-dC), 0.05% NP40, 5% glycerol; temperature not stated

## ATTAAGCCGGGCTGCTGCGGGCTGGGAGTATGATCC (double strand) [WT UtroUp (UtroUp-Jazz) DNA target]
[1]
  Kd: 32 nM
[2]
  Kd: 3.5 nM

Source: publication PMC3576267
